The text below walks through data of US20070259805A1.

The experiment concerns the target MITF-M expressed in HEK293 cells from the pCI mammalian expression vector (human) (UniProt O75030). The experiment can be described thus: cell-based or functional assay.
Sequence of UniProt O75030 (O75030 other isoform, or with tags, fused parts or gaps limits assumed): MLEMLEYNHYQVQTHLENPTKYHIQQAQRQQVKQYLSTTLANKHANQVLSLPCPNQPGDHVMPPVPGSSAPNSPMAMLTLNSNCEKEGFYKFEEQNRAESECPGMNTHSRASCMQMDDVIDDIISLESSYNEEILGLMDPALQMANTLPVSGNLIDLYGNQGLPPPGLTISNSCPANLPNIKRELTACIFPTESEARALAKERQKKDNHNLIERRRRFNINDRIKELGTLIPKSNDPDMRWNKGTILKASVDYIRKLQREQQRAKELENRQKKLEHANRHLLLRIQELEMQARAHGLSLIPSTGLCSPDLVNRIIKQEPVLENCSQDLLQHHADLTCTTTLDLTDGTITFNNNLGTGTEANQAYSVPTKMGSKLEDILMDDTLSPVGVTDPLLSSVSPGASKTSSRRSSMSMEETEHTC

“CLOCK expressed in HEK293 cells from the pCI mammalian cell expression vector (from UniProt O15516 1-846)” yielded a luciferase activity (firefly/renilla) in a reporter assay using BCL2 gene promoter, HEK293 cells, against cells transfected only with the MITF-M gene expression plasmid of 1.5 fold.

Consider “carboxy-terminal FLAG-tagged ELK4 protein expressed in HEK293 cells from pCI (from UniProt P28324 1-372)”, for which the luciferase activity (firefly/renilla) in a reporter assay using BCL2 gene promoter, HEK293 cells, against cells transfected only with the MITF-M gene expression plasmid was found to be 1.4 fold.

“carboxy-terminal FLAG-tagged HLF protein expressed in HEK293 cells from pCI (from UniProt Q16534 1-295)” showed a luciferase activity (firefly/renilla) in a reporter assay using BCL2 gene promoter, HEK293 cells, against cells transfected only with the MITF-M gene expression plasmid of 1.8 fold.
